Changes are numbered by the printed parent chain.
T1: hiR2-FL-L539A-T7 (human, UniProt Q6PJF5 1-856)
T1 construct: on MEF-DKO cells
T1 sequence: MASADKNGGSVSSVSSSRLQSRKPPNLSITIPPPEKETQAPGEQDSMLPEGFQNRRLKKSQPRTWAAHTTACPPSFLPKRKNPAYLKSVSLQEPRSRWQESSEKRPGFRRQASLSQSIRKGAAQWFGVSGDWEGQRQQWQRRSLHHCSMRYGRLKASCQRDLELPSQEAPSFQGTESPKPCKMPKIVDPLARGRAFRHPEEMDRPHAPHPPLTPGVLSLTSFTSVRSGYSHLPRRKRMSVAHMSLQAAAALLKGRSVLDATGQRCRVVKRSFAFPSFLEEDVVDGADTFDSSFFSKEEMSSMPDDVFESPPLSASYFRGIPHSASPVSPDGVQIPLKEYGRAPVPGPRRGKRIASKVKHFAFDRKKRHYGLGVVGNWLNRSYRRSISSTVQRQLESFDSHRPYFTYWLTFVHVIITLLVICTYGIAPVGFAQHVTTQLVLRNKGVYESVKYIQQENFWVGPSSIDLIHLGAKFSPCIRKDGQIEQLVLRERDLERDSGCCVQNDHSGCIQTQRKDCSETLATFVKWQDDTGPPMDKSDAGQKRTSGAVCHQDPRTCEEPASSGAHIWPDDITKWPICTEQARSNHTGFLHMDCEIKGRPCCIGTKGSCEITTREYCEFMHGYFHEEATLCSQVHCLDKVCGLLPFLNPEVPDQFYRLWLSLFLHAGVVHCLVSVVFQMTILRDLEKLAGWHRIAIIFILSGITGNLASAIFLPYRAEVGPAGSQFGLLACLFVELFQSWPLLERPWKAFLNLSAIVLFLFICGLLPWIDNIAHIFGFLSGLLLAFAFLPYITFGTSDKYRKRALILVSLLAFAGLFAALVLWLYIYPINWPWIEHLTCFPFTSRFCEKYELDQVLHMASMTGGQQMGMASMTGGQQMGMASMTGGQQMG

B1: antibody 34 (antibody, V domains shown)
VH: QVTLKESGPGILQPSQTLSLTCSFSGFSLSTFSLGVGWIRQSSGKGLEWLAHIWWDDEKYYNPALKSRLTISKDTSKNQVFLKIANVDAADTATYYCARAYYSKSYYALDYWGQGTSVTVSS
VL: DIQMTQSPSSLSASLGERVSLTCRASQEISGYLSWLQQKPDGTIKRLIYAASTLDSGVPKRFSGSRSGSDYSLAISSLESEDFADYYCLQYANFPFTFGSGTKLEIK
notes: mouse IgG, kappa light chain; also called clone #34; purified antibody 34
B2: antibody 5 (antibody, V domains shown)
VH: QVTLKESGPGILQPSQTLSLTCSFSGFSLSTFGMGVGWIRQPSGKGLEWLAHIWWDDEKYYNSALKSRLTISKATSKNQAFLKIANVDTADTATYYCARISNYGSNYWYFNVWGTGTTVTVSS
VL: QVVLTQSPALMSASPGEKVTMTCSAGSSVSCMYWYQQKPGSSPRVLIYDTSNLASGVPARFTGSGSGTSYSLTISRMEAEDAASYYCQQWNSYPLTFGAGTKLELK
notes: mouse IgG, kappa light chain; also called clone #5; purified antibody 5
B3: antibody 44 (antibody, V domains shown)
VH: B2 VH with G44E, E58D, S63P, A74D, A80I, A85T, D91E, A98S, S101G, N111D
VL: QIVLTQSPAVMSASPGEKVTMTCTASSSVYYMYWYQQTPGSSPRLLIYDTSNLASGVPVRFSGSGSGTSYSLTISRMEAEDAATYYCQQWNTYPLTFGAGTKLELK
notes: mouse IgG, kappa light chain; also called clone #44; purified antibody 44
B4: antibody 43 (antibody, V domains shown)
VH: B2 VH with T3A, P42S, H52N, E58D, S63P, A74D, T75A, S101G, N111D
VL: QIVLTQSPAIMSASPGERVTMTCSANSRISYMYWYQQKPGSSPRLLIYDTSNLASGVPVRFSGSGSGTSYSLTISRMEAEDAATYNCQQWSSYPLTFGAGTKLELK
notes: mouse IgG, kappa light chain; also called clone #43; purified antibody 43
B5: antibody 42 (antibody, V domains shown)
VH: B2 VH with F24L, M34R, S63P, A74D, A80V, K83R, S101Q, N111D
VL: B4 VL with Q1L, R18K, S24G, N26T, Y33F, L45V, M77V, A82V, N86Y, S91N
notes: mouse IgG, kappa light chain; also called clone #42; purified antibody 42
B6: antibody 22 (antibody, V domains shown)
VH: B2 VH with A80V
VL: B2 VL with C31Y, S84T
notes: mouse IgG, kappa light chain; also called clone #22; purified antibody 22
B7: antibody 16 (antibody, V domains shown)
VH: QVTLKESGPGILQPSQTLSLTCSFSGFSLSTFALGVGWIRQPSGRGLEWLAHIWWDDDKYYNPALKSRLTISKDTSKNHVFLKIANVDTADTATYYCARITTYYYGMDYWGQGTSVTVSS
VL: DIVLSQSPATLSVTPGDSVSLFCRASQSIGNHLHWYQQESHASPRLLIKYASQSISGIPSRFSGSGSGTDFTLSINSVETEDFGMYFCQQSYNWPLTFGAGTKLELK
notes: mouse IgG, kappa light chain; also called clone #16; purified antibody 16
B8: antibody 3 (antibody, V domains shown)
VH: QVTLKESGPGILQPSQTLSLTCSFSGFSLTTFAMGIGWVRQPSGKGLEWLAHIWWDGEKYNNPVLKSRLTISKDTSKNQVFLRIANVDTPDTATYYCARISSIYYIIDNWGQGTSVTVSS
VL: B7 VL with S5T, D17H, F22S, G30S, H32N, Q38K, E39K, A42E, A51V
notes: mouse IgG, kappa light chain; also called clone #3; purified antibody 3
B9: antibody 48 (antibody, V domains shown)
VH: QVQLQQSGTELVRPGTSVKVSCKASGYAFTNYLIEWVKQRPGQGLEWIGVINPGSGFTKYNEKFKGKATLTADKSSSTVYMHLSSLTSEDSAVYFCARGLYRAMDYWGQGTSVTVSS
VL: DIQMTQSPASQSASLGESVTITCLASQTIATWLAWYQQKPGKSPQLLIYGATTLADGVPSRFSGGGSGTKFSFKISSLQAEDFVSYYCQQLYSTPYTFGGGTKLEIK
notes: mouse IgG, kappa light chain; also called clone #48; purified antibody 48

Each binder was assayed against T1, hiR2-FL-L539A-T7 (assay: FACS, MEF-DKO cells, 3 µg/ml).
Excerpt: In brief, immortalized MEF-DKO-hiR2-FL-G498A-T7, MEF-DKO-hiR2-FL-Q502R-T7, MEF-DKO-hiR2-FL-I509V-T7, MEF-DKO-hiR2-FL-Q512S-T7, MEF-DKO-hiR2-FL-R513E-T7, MEF-DKO-hiR2-FL-K514E-T7, MEF-DKO-hiR2-FL-D515E-T7, MEF-DKO-hiR2-FL-E518S-T7, MEF-DKO-hiR2-FL-T522V-T7, MEF-DKO-hiR2-FL-F523W-T7, MEF-DKO-hiR2-FL-Q527P-T7, MEF-DKO-hiR2-FL-D528I-T7, MEF-DKO-hiR2-FL-D529H-T7, MEF-DKO-hiR2-FL-T530P-T7, MEF-DKO-hiR2-FL-G531S-T7, MEF-DKO-hiR2-FL-P532A-T7, MEF-DKO-hiR2-FL-M534-T7, MEF-DKO-hiR2-FL-D535-T7, MEF-DKO-hiR2-FL-K536-T7, MEF-DKO-hiR2-FL-S537E-T7, MEF-DKO-hiR2-FL-D538L-T7, MEF-DKO-hiR2-FL-L539A-T7, MEF-DKO-hiR2-FL-Q541H-T7, MEF-DKO-hiR2-FL-T544Q-T7, MEF-DKO-hiR2-FL-S545F-T7, MEF-DKO-hiR2-FL-A547S-T7, MEF-DKO-hiR2-FL-T555V-T7, MEF-DKO-hiR2-FL-E557D-T7, MEF-DKO-hiR2-FL-A560S-T7 and MEF-DKO-hiR2-FL-S562E-T7 cells were harvested with 10 mM EDTA in PBS, washed and resuspended in FACS buffer (PBS, 3% FBS, 0.05% sodium azide), and seeded in Nunc U-bottom 96-well plates (Thermo Fisher Scientific, USA) at approximately 3×10⁵ cells per well. To pellet cells and remove supernatants, the plates were centrifuged at 1,500 rpm and 4° C. for 3 minutes. For primary staining, cells were resuspended in 100 μl per well of either FACS buffer alone (controls) or the purified antibodies 3, 5, 16, 22, 34, 42, 43, 44, 48, and 50 of the invention at 3 μg/ml in FACS buffer and incubated on ice for 1 hour. Afterwards, plates were centrifuged at 1,500 rpm and 4° C. for 3 minutes and washed twice with 200 μl per well of FACS buffer. For secondary staining, cells were spun down and resuspended in 100 μl per well of PE-conjugated goat anti-mouse IgG F(ab′)2 detection fragment (Dianova, Germany) diluted 1:100 in FACS buffer. Protected from light, the cell suspensions were incubated on ice for 1 hour. Plates were then centrifuged at 1,500 rpm and 4° C. for 3 minutes and washed three times with 200 μl per well of FACS buffer. Finally, cells were resuspended in 150 μl per well of FACS buffer and analyzed using a BD Accuri™ C6 Plus flow cytometer (Becton Dickinson, Germany).

Binder	loss of binding vs wild type [%]
B1	≥ 95
B2	≥ 95
B3	≥ 95
B4	≥ 95
B5	≥ 95
B6	≥ 95
B7	≥ 30
B8	≥ 95
B9	≥ 30
